Assay results from IntAct's records for PubMed 19898420.

B1: Abscisic acid receptor PYL2 (Arabidopsis thaliana (Mouse-ear cress)), O80992 (parent)
chain: MSSSPAVKGLTDEEQKTLEPVIKTYHQFEPDPTTCTSLITQRIHAPASVVWPLIRRFDNPERYKHFVKRCRLISGDGDVGSVREVTVISGLPASTSTERLEFVDDDHRVLSFRVVGGEHRLKNYKSVTSVNEFLNQDSGKVYTVVLESYTVDIPEGNTEEDTKMFVDTVVKLNLQKLGVAATSAPMHDDE
B2: Abscisic acid receptor PYR1 (Arabidopsis thaliana (Mouse-ear cress)), O49686 (parent)
chain: MPSELTPEERSELKNSIAEFHTYQLDPGSCSSLHAQRIHAPPELVWSIVRRFDKPQTYKHFIKSCSVEQNFEMRVGCTRDVIVISGLPANTSTERLDILDDERRVTGFSIIGGEHRLTNYKSVTTVHRFEKENRIWTVVLESYVVDMPEGNSEDDTRMFADTVVKLNLQKLATVAEAMARNSGDGSGSQVT

Variants of: B1
Conditions: with HAB1, Q9CAJ0

Variant	effect of a mutation on the interaction
MSSSPAVKGLTDEEQKTLEPVIKTYHQFEPDPTTCTSLITQRIHAPASVVWPLIRRFDNPERYKHFVKRCRLISGDGDVGSVREVTVISGLPASTSTERLEFVDDDHRVLSFRVVGGEARLKNYKSVTSVNEFLNQDSGKVYTVVLESYTVDIPEGNTEEDTKMFVDTVVKLNLQKLGVAATSAPMHDDE	decreasing interaction
MSSSPAVKGLTDEEQKTLEPVIKTYHQFEPDPTTCTSLITQRIHAPASVVWPLIRRFDNPERYKHFVKRCRLISGDGDVGSVREVTVISGLPASTSTERLEFVDDDHRVLSFRVVGGEHALKNYKSVTSVNEFLNQDSGKVYTVVLESYTVDIPEGNTEEDTKMFVDTVVKLNLQKLGVAATSAPMHDDE	decreasing interaction

Variants of: B2
Conditions: with HAB1, Q9CAJ0

Variant	effect of a mutation on the interaction
MPSELTPEERSELKNSIAEFHTYQLDPGSCSSLHAQRIHAPPELVWSIVRRFDKPQTYKHFIKSCSVEQNFEMRVGCTRDVIVISGLPANTSTERLDILDDERRVTGFSIIGGEARLTNYKSVTTVHRFEKENRIWTVVLESYVVDMPEGNSEDDTRMFADTVVKLNLQKLATVAEAMARNSGDGSGSQVT	disrupting interaction
